Experiment: soluble on expression in E. coli; label from the status in PepcDB or PDB records

Sequence | soluble on expression in E. coli
MKKQHDTIIVLDFGSQYNQLIARRIREFGVYSELHPHTITAEEIKAMNPKGIIFSGGPNSVYGEGALHCDEKIFDLGLPIFGICYGMQLMTQQFGGTVERANHREYGKAVLKVENESKLYANLPEEQVVWMSHGDLVTGLPEGFVVDATSESCPIAGMSNEAKNLYGVQFHPEVRHSEHGNDLIKNFVFGVCGCSEGWNMENFIEVELEKIRETVGDKKVLCALSGGVDSSVVAVLIHKAIGDQLTCIFVDHGLLRKGEAEGVMKTFSEGFHMNVIKVDAKERFMNKLKGVEDPEQKRKIIGNEFIYVFDDEASKLEGMDFLAQGTLYTDIVESGTATAQTIKSHHNVGGLPEDMQFKLIEPLNTLFKDEVRVLGSELGIPDEIVWRQPFPGPGLGIRVLGEITEEKLEIVRESDAILREEIIKAGLDREIWQYFTALPGMRSVGVMGDERTYDYTVGIRAVTSIDGMTADWARIPWDVLEKISVRIVNEVKHVNRIVYDVTSKPPATIEWE | not soluble
GPGSMACARDHLRQTRTHQRHASTRDGQRMRAVSLAADPACTHPPTHTHTHIYTPIYVCRGFVCVTPQWRTELFNVVLLWRRAHTSLLSAACLCPYAQASPSCLHASFLSRLPRLSLSLSPCSCLHPHSTGVFAYIVFLRCRAATQNTSPVSSCVVRLVTRDLCAQSPTPPLPALCGHRNLVSLHRRKTPRLKRRVRTQATQRSDHRSSLIMPVFHAVMSVKESERVERIAPVKNRAWGLRFQCASCNEESTGMMYVNQTEQHERDGGMHNFVSKCKLCKADITADVLPVPAGTGYYSAEEENPANVIAAFEVRGGRPVELEIDNQWMIVTAGGGLFEDVDLSQEWYDYDESSQATVSVAGVSVDFEKSKKK | not soluble
MGSDKIHHHHHHMCRWLAYTGNPIHLETVLFRAKHSLIDQSLHSELGATTTNGDGFGIGWYGDPDELPFRYRSVHPAWNDRNLREAARAIRSRMFVAHIRAATDTPVQETNCHPFRHGRWLFAHNGLIRDFHKLRRDLTMKVDPALFPTLEGSTDSELMFRLALTYGLEQTPLPALERMVGMVEETAARYRVDEPLNMTICATDGDRIIAVRYSSERQSRSLFHTTSFKHLHELYPHNPRIAEAGDDAFMVVSEPLVDLRGAWEEVAESTAIVAQGADVQQRPFNPRHT | not soluble
MASSMRSLFSDHGKYVESFRRFLNHSTEHQCMQEFMDKKLPGIIGRIGDTKSEIKILSIGGGAGEIDLQILSKVQAQYPGVCINNEVVEPSAEQIAKYKELVAKTSNLENVKFAWHKETSSEYQSRMLEKKELQKWDFIHMIQMLYYVKDIPATLKFFHSLLGTNAKMLIIVVSGSSGWDKLWKKYGSRFPQDDLCQYITSDDLTQMLDNLGLKYECYDLLSTMDISDCFIDGNENGDLLWDFLTETCNFNATAPPDLRAELGKDLQEPEFSAKKEGKVLFNNTLSFIVIEA | soluble
MSLQVTDVEIAQYYQDNKAQFMTQHLAHIQFANEQDAKVAYEELQKGANFADVAKAKSLDKISGENGGDLGWVNENELPKAFEDAAAALQVGQYSQPINVDGNYHIVLVQERKAQSLENVKAQIADLVRKSLMESRYFSLEKQASDKAFEDSKSLNTAAQAAGVKVQESDYFSRQNVPAGLNFPNVIYTIFESDTTNVGMNSEPINVGDYHTIIVRVLDRKAEGVKSLEEAKIDIETFLKRQKAENALNGKAQQAVKKLSENPESKVDGINFSSEQTFTLSENKDPILTNGIFSIAKPESSKALYQVVHNSNGDVVVVALNKVEQGSLSEKELSQFAMQLLRSHQSELQVQLIQGLRERAKIEVNDSFINQDDEAQEGHHHHHH | soluble
MGSDKIHHHHHHMPLLLKGSCRCNAVRFEVESHTPVPFMLCYCSICRKQQGGGGFAINLGAAYETLNIRGKRSLGVYRAEIEDDEHPHCEVSTGERNFCRKCGSALWLYDPTWPELVHPFASAIDSDLPKPPSRVHLMLKYKANWVEPVIGKGDKTFDVYPEESIADWHKLTGMWVD | not soluble
MVLLSVFLATGCTDTEQQPDTTTITEPDTTTTAQSETSKLIVSTTTSLEDTGLLEEIEAAFEDKYPGVDVLVISGGTGIAIQYGERGDADILLTHDKSREEEFVNNGFGTNRTEIAYNYFWIVGPENDPAGINGLNATEAFTRIMEEGQNDSDQVKFASRGDDSGTHAREKKIWESTGVSYGEINSSGEWYIESGRGMGETLLLSNEQNAYTLTDSGTFLAYTNEGRIQIVPIVTAGDELLNVYAAMPVNPEKHPNVNYEGAQNFVDFLVSSEGQEIIGNFGREQYGEPLFTPISEGLPS | not soluble

From the DeepSol protein solubility set
